Reference: a protein production outcome set (Wang et al. 2014)

Assay: label from the status in PepcDB records

| Sequence | protein production |
| --- | --- |
| MARYINITLEKRGVTCKALLLDDVAPRTSKAVWDALPQSSQVFHGKYARNEIYNLVPAFAPKEPGAENTTVTPIPGDVCYFTFTSNDLKTPSHGYEADSGTDEVQTIVDLAVFYGRNNLLLNGDTGWVPGNVFATIVEGLDEMAAACQDIWMGGARDETLTFSRAEDTA | not failed |
| MMVPDVSNFAVILTTSGAILLIAYLTAISARDVIRLLISLELMFAAVFLAIVPLFSINPPMAYAVAIITAFTSSTELMVLVTAIILLDRRKRGIDVDKVAVGGDSL | failed |
| CAAIAALSAVGLPSDRFSFEGFLPSKSSQRLLQLEKLKDETQTLIFYEAPHRILDCVTDMMHIFGEDRPVGFAREITKTFETIKKMTLKELVSFIQNDHHQQKGEIVLIVGGNPVNK | failed |
| MSDSLRIIFAGTPDFAARHLGALLSSQHKIVGVFTQPDRPAGRGNKLTPSPVKILAEHHGIPVFQPKSLRPEENQHLVADLNADIMVVVAYGLILPAAVLAMPRLGCINVHGSLLPRWRGAAPIQRSVWAGDEKTGITIMQMDIGLDTGAMLHKIECAIQPEDTSATLYDKLAQLGPQGLLITLQQLAAGTALAEVQNETQATYAEKLSKEEAKLDWTLSATQLERCIRAFNPWPVSYFIVDEQPIKVWQAQVLPAGEDAEPGTIIHADKHGIQVATADGVLNITQLQPAGKKAMSAADLLNSRREWFIPGSQLV | not failed |
| MLGAPAHRAASAAPVIRRTKGPDMPTRLTALLSPSRPSRPSRDDAAGPVAGTARPARGAGWATALSLALVCFVTYAALSVRLHQRMLTTGYDLGIFEQAVRSYAHGHLPVAELKGPGFPLLGDHFSPVLALLAPLYRVWPAPVTLLVAQAALFAVAVIPLARWAEEVRGRRAALVVGLGYGASWGVAQAVGFDFHEVCFAVPLLALSLTAVGRGRARAAALWALPLLLVKEDLGLTVAVVGLLIARTGERDDRRRGGALVLAGVLGSFLEMLVVIPAFNPGGTFAYSSSVPGAGSATPGAGELLLHYTVGLVTPDTKAQTVLALLSVTGFLAVRSPLLWAALPTLLWRFASDNQAYWGTGYHYSAVLMPVLFAAFVDALTRPGPVRYALAASAAVTVLLLPQFPLWQLTQPATWHTDSRLASARRLMDRIPDGATVAASNRLVPQLTNRARVSVFGLGGSRPDAEWIIDDSAQPQGWPIAPDDDRRLLSEVRNNGRYRTVADQDGYVLLQRRP | failed |
| MPSFRITRKVRHSATQMYDLVADIERYPEFLPLCESLRVLRDAEGPNGTTVRVAEMGVGYKAIRERFTTRVSLDRENRKIVAEYIDGPFRHLENRWSFRDAEGGGCEVDFFITYEFKSRTLGLLMGTMFDRAFRKFTDAFEGRATAIYGVPA | failed |
| MRRGSGNPERPSLSRDGLRVPPPCPGKRGPGHFSGYHGGMEGIRRAAQRAAEEFLQAFPMAPGSLFVLGGSTSEVLGERVGTRPSLEAAHAVLEGLLPPLLERGVHVAVQACEHLNRALVVERETARAFGLEEVAVFPHPKAGGALATAAFLRFRDPVMVESLKAQAHGGMDIGGVLIGMHLRPVAVPLRLSVRKIGEAVLLAAKTRPKLVGGARAVYTREEMLKKLEEFLPKPP | not failed |
| MATQLVKGNTAVIIGAMYAGCDCYFGYPITPASEILHEASKYFPMVGRKFVQAESEEAAINMVYGAASTGKRVLCATSGPGMSLKQEGISFLAGSELPCVLVNVQRAGPGLGNIGPEQADYNQAVKGGGHGNYKNIVLAPNSVQEMCDCTAKAFELATKYKNPVIVLSDGVLGQMVEPLKFPEQAIKPEIDESWAVRGTKETRKNLVTSIFLDFKQLEEFNYALQEKYEIIKENEQDFEGYQLDDAEIILVSYGISSRISKTAVDVARKEGIKAGLFRPKTLFPFPEKELNKLAEKKCTFISVEMSNGQMAEDIKLATCCKRPIELVNRLGGNLIEVDQILAKIKEIAGGN | failed |
| MLTAFTAGLLLITVSELGDKTFFIAMILAMRYPRRWVLVGVVGGLAAMTILSVLMGQIFTFLPTRYINYAEVALFLIFGTKLLWDARRIKATANLEEMEDAEKAIASGEKKLKIVPRGWGIVVESFALTFVAEWGDRTQIATIALAASNNAWGVSAGAILGHTICAVIAVMGGKFVAGRISEKTVTLIGGLLFYLFAVVSWWTKIA | failed |
| MGHHHHHHSHGLCYDLCRFGAVVAEDGYYVDEKKCEGCAFCFNVCPERAIEMENVKTGDLYVSKTEWGYFVHARLKPGEENTGRLVTEVKNRAKEIAEESNAEFLIVDSAPGVGCPVMASLTGVDAAIIVTEPTVSGLSDMLRILELCEHFRIRPFVVVNKFDLNVNIASEIESYCSENGVEFAGRVPFDKAIPEQIANLNFPFSGKAADKMVEIWKKLRE | failed |
| HARPAGQLKVHSMPGVGQHYVIDAIARYRRNHPDVAFDLTMTHRVPDLLEEGFDVSIVLASELADSGFVSQRLGITYSIVCASPEYVKTFGMAHKPADLLNHACLRLVSPVFP | failed |
| MDREQVVALQHQRFAAKKYDPNRRISQKDWEALVEVGRLAPSSIGLEPWKMLLLKNERMKEDLKPMAWGALFGLEGASHFVIYLARKGVTYDSDYVKKVMHEVKKRDYDTNSRFAQIIKNFQENDMKLNSERSLFDWASKQTYIQMANMMMAAAMLGIDSCPIEGYDQEKVEAYLEEKGYLNTAEFGVSVMACFGYRNQEITPKTRWKTEVIYEVIE | not failed |
| MNSTIIIVGILALVFIFLVFGVSSKPLRFIGKALFHVTLGVALLFIVNVVGTYFDFHLPINLGTATITSLLGLPGVAALVVIKLYIMPR | failed |
| MNTSHSSPSNTLLWQSLGLGLLALLLFCAGADHQSAIGFDSRFVLFAKEMLRHGPGFFPTTYGQPYADYSSASTLLVWLFSLPGGQVTSLTAWLPTAIASALIVSLIYRLLAPYSRTWALLSVALLLLSNTFISETRAVSLDQMLAAVSLAVFYLGYAHDHFGTRRRLGWIFLLLVLGFAIRGPIGLVIPTGMLCSYYLLNGQWRRLFSVGFSALALLVACVGLLLWLAKLSGGQAFVDDVIRMQFMGRMDGSEGSSDVFYYFTSSLGNYALAYPLAILAWLAVLLTRATEQGPGLKLLRLCTAAGLIVMIGLSIPQAKKARYLLPMLPMAAIIAAYPFQAGRGRLLAWLRGAIQGLWLLLPGLLIIGLLVLRRKFPEQLDSLTPMLLVLGLLQLLSLGLLFKRQWRAVGLAYSAVLAVWACYIGVFEPVEHRLYDTRTFSHSAMQLIEADPAPVVLHRMGKDAKAIKFMVNLDRDLQPQFTESPDALAQVPGPAWVILDQSDLASLQNTPLADLKPVLSGRFDKNDFVLLHLTGPTAAQP | failed |
| MNSLPIADLLASAVIAACIVISTMRGVIAEAGSMVAWVVSFFFAKLFAAPFADLAFASFQPRLFALALSFISLFVIACLIQKMLRSLLTGAVSAVGLGFANRILGGVFGALKGVLIVTLLIMLASKTDLPDTEEWQQSYTVPFFVSLSEAVLNHTDNAPESLDDD | failed |
| MFSRVPQPLAFAEALLAQFGALSRETDITALLGGFARAVGELSGCELSQLYLLDQTHTALTLNAECRDGLLQALEPSSLPADYTGEQLLQFALCQNRVVSLVDLPSRLHETGFLPAGEQPWLSLLCVPLVSPEKTVEGMVVCATRRPLDLQGFAHPLGQLGSFVLAQLHLLQRLSQPSGE | not failed |
| MAKTIYQPAPEAESNIREERSQRPNNRRRILLITVAASVILGLVAILFGGAILNPAATPESEPTMTATQIIPLVILVVMFVVATKWPLNIGVMGLVASFGVGYFMLGMTDKEILADFPANIVITIIGVTYFFSMAQRNGTVDIIVQTCVRLVRGKTLLLPWVFFLLAASLTALGTFSPAAVALLAPAAIGLAYESRIHPVLMGAFIINGAHAGGFSPLSVAGVLVHDIAVKNGFPISQGALFGASFALNLILSVLTVVLFALLGKLRDGATGQHADLDTTRTTRPHGQQILTLALIVAMLVCALGFHMPIGFVALSAGLLLALVNIKEHRTFIGGVSWSTVLLVAGMITYVSLLQHVGVIDTLAEQALALGAPLLIALVLCYVIGVGSAFASSTALLTAFIPLAGPLLATSSLSASGTVAALAIAATVVDVSPFSTDGALVVANAREDDRQRVYKQLMMYAGGVVLVAPALAWALLVPTGIM | failed |
| GTLQDGAVDWGVRRTFREYVTGDIAHGEWALTAGAQDGGALFRFPGGEGTYEDGDLNAAFRGTVRFTGAHGLDLSLGNVRTVVEDGRGTLYADVTSPDVKEAKVPLVTFTAGEPKPAGGLVKVTEAPAKLTARGAKAFGGMYRAGTEMDPVSLAVAL | failed |
| MKKLSFFLIATLSLGACSTATSPTGRHQVFSGVSQQQLNQLGEQAFVEIKAKEKISGNVRQNAYVRCVVDALVTELPLQWRHVKWETVLFLNEEPNAFALPGGKVGVNTGIFRAAKNQEQLAAVLGHEIGHVVSRHHEERITWQLGTQAGLGLLGVLAGTAYGDSAATAVNQIGGLTAQAAFLLPGSRTQEREADIVGQRLMAQAGFDPIQAVYLWKNMLAIAGQRPPQWLSTHPDPTNRIRQLEQQSAVLASVYAQARDAGRVPHCSPAALEHHHHHH | failed |
| MCRSIRLTAMAAFLVIMGGAACSGKPVLPDLTLEGGDRSYSELITAQQHSFSIHTPSDAPLENSSIRIEVNEGESLTPRLRSSGSVDCSSLASVVAGVVAPGMTAEEKALALWRFVMDSCYHGRWGTSLDGLEHLNVYGYGYCGTYAAVLESLWWTAGLTARHVNIGNHAATEVYYNNDWHYIDADTRTYFLLKDNRTIASLDELNDNVELWTMLRRGSSRKAGKKYYYMTMHPNGHGRSPVYTNDFTMAKGDVLTLDWQSRGKWCLNRGQEGGKEPAGEPPFYGNGLFTFHRDFKDRSQSRSGLVSSTNIDWQDAAAGYLHPQHAKQEASLVYRVKTPYFIPETTLSGSFFRKGTGDSAAIDISTDNGKRWVSLWRADATGTVKASVVTAQTQQVTTDVPWKYSYLMRLRMRAGKSPRDVGAYHLDSASVLAYNPRCLPALRPGDNRITFSDGSQARRTVRVTYNWHDDLPITLSKETPFEGEEITVSARVTNRGAAEAHNVPVAVYLGNPAQGGVEIGRDTISRIPVGGTGLARVQWKATRKLAGRAANPGVPVYAVVDPDNRVAESDKANNVFSRIVKVLNPPDVRIPSESFIRFERAKDHSQSLAVVASVRNFSNSADYGLFLDDHGTGEAVEVTVYDGNPAKGGKVIGRETISRLLPLEHRNVSVKWDIAQLKGVHTVYVQVHPPANLTRAPGKRAPAAMAVPVDLDAYRSCKGI | failed |
| MKTDTEWLLCDFHVHTNMSDGHLPLGEVVDLFGKHGVDVVSITDHIVDRRTLEQRKRNGEPLGAITEDKFQDYLKRLWREQKRAWEEYGMILIPGVEITNNTDLYHIVAVDVKEYVDPSLPVEEIVEKLKEQNALVIAAHPDRKKQDEEHLSWYLWANMERFKDTFDAWEIANRDDLFNSVGVKKYRYVANSDFHELWHVYSWKTLVKSEKNIEAIKEAIRKNTDVAIYLMRKNRLSSLSDVI | not failed |
| VATPRGRLRVASPVLFSQLAMGRIGAGFYAAYPEVIIEVTAEDRLVDLVEEQFDVAIRINPDPDSRLVGRCFARDRLVVVAAPELPRPMPGAIRQTPAIVTSSFQPTHWKLDNGHLVLKPIPKLWFSS | failed |
| MGHHHHHHSHSPSPSSRVTVSRASSSRSVRTTRGKRKRVDVEESEASSSVSISHSASATGNVCIEEIDVDGKFIRLKNTSEQDQPMGGWEMIRKIGDTSVSYKYTSRYVLKAGQTVTIWAANAGVTASPPTDLIWKNQNSWGTGEDVKVILKNSQGEEVAQRSTVFKTTIPEEE | not failed |
